Consider three molecules from PMC3644210 (Biochemical pharmacology, 2012).

Ends that are not written are not given here.

The conditions of data set [1]: comparison value; source not explicitly stated; cited from earlier work.
The target in data set [2] is Kv1.1 (Homo sapiens, UniProt Q09470). Format: cell-based.
For data set [3], the target named is Kv1.5 R487T (UniProt P22460).
Data set [4] addresses Kv1.1 E353T (UniProt Q09470).
Data set [5] concerns the target Kv1.1 Y379V (UniProt Q09470).
The target in data set [6] is Kv1.5 (wildtype) (UniProt P22460).
Kv1.5 (wildtype), sequence (P22460 whole entry): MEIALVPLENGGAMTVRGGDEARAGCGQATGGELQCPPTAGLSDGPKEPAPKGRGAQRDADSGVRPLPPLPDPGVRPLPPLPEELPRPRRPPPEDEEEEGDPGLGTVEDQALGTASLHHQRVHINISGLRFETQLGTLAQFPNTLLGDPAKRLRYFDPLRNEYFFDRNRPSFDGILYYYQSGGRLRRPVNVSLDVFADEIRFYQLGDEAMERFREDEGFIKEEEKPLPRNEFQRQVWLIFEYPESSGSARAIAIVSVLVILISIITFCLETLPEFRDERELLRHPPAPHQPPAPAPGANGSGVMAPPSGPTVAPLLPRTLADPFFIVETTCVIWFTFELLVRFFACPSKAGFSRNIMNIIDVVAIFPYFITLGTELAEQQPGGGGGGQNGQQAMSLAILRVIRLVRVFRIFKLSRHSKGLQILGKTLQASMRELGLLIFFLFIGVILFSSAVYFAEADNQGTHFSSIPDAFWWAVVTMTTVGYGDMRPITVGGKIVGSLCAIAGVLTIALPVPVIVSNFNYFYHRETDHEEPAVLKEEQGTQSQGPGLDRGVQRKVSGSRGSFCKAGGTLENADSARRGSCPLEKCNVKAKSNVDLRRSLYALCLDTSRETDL

Kv1.1, sequence (Q09470 whole entry): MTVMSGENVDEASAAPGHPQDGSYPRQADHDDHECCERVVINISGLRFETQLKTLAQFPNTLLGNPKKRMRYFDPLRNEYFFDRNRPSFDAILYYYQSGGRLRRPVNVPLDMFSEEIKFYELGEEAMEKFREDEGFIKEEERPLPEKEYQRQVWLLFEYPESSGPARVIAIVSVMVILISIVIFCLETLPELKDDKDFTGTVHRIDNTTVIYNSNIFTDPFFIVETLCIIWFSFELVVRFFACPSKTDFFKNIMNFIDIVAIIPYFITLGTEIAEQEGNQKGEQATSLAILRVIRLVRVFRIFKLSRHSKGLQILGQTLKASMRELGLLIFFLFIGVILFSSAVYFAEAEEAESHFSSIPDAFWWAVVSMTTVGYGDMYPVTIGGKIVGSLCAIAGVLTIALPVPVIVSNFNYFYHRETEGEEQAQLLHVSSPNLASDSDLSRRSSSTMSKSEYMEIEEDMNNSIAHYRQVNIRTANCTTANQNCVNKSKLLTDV
Kv1.1 Y379V, sequence (Q09470 whole entry Y379V): as the sequence (Q09470 whole entry) above, with Y379V counted along it
Kv1.1 E353T, sequence (Q09470 whole entry E353T): as the sequence (Q09470 whole entry) above, with E353T counted along it
Kv1.5 R487T, sequence (P22460 whole entry R487T): as the sequence (P22460 whole entry) above, with R487T counted along it

In the case of “OcyC8: κ-KTx2 scorpion toxin from Opisthacanthus cayaporum (YDACVNACLEHHPNVRECEEACKNPVPP; UniProt P86110 43-70, looked up)”, in data set [1], the “pI of OcyC8” value is given as 4.92.

Regarding `CC[N+](CC)(CC)CC` [TEA, Tetraethylammonium], in data set [2] (0.4 mM TEA, n = 6, 250-ms steps to +10 mV), the “reduction of the K+ current by TEA” value came out at 55 ± 2%. In addition, in data set [2] (read-out: IC50 of TEA on Kv1.1, Kv1.1, source of the IC50 not stated), the concentration for half-maximal inhibition (IC50) (as a rule, the concentration that gives 50% inhibition) is 400 µM.

On to SCKKECSGSRRTKKCMQKCNREHGH-NH2 (ends and bridges not checked) [Hl15-1-1 (Heterometrus laoticus toxin)], for which the percent inhibition of the K+ current by 30 μM Hl15-1-1 (whole-cell patch clamp) was 26.3% in data set [3] and 1% in data set [6]. In addition, the percent inhibition of the K+ efflux by 30 μM Hl15-1-1 (whole-cell patch clamp) in data set [4] is 32%; in data set [5], 6.1%.
